Laboratory results published in the RNAGym collection of RNA variant scans (doi:10.7554/elife.90254).

B1: LINE1-mini (parent)
chain: GGCAGAGCUCAACACAGCGUGGCAAAGUGGCUGUGGCUAGACUGCC

Variants of: B1
Assay: self-cleavage, relative activity (ratio to wild type); higher = more cleavage; in vitro, sequencing; the parent is a self-cleaving ribozyme

Variant	self-cleavage
GGCAGAGCUCAACACAGCGAGGCAAAGUGGCUGUGGCUAGACUGCA [U20A C46A]	0.76
GGCAGAGCUCAACACAGCGAGGCAAAGUGGCUGUGGCUAGACUGCG [U20A C46G]	0.79
GGCAGAGCUCAACACAGCUUGGCAAAGUGGCUGUGGCUAGACUGGC [G19U C45G]	0.82
GGCAGAGCUCAACACAGCUUGGCAAAGUGGCUGUGGCUAGACUGUC [G19U C45U]	1.38
GGCAGAGCUCAACACAGCUUGGCAAAGUGGCUGUGGCUAGACUGAC [G19U C45A]	0.43
GGCAGAGCUCAACACAGCUUGGCAAAGUGACUGUGGCUAGACUGCC [G19U G30A]	0.96
GGCAGAGCUCAACACAGCUUGGCAAAGUGCCUGUGGCUAGACUGCC [G19U G30C]	0.59
GGCAGAGCUCAACACAGCUUGGCAAAGUGUCUGUGGCUAGACUGCC [G19U G30U]	1.11
GGCAGAGCUCAACACAGCUUGGCAAAGUGGCUGUGGCUAGACUGCG [G19U C46G]	0.71
GGCAGAGCUCAACACAGCUUGGCAAAGUGGCUGUGGCUAGACUGCA [G19U C46A]	1.08
GGCAGAGCUCAACACAGCUUGGCAAAGUGGCUGUGGCUAGACUGCU [G19U C46U]	0.86
GGCAGAGCUCAACACAGCUUGGCAAAGUGGUUGUGGCUAGACUGCC [G19U C31U]	0.44
GGCAGAGCUCAACACAGCUUGGCAAAGUGGAUGUGGCUAGACUGCC [G19U C31A]	0.37
GGCAGAGCUCAACACAGCUUGGCAAAGUGGGUGUGGCUAGACUGCC [G19U C31G]	0.05
GGCAGAGCUCAACACAGCGAUGCAAAGUGGCUGUGGCUAGACUGCC [U20A G21U]	0.69
GGCAGAGCUCAACACAGCGAAGCAAAGUGGCUGUGGCUAGACUGCC [U20A G21A]	0.76
GGCAGAGCUCAACACAGCGACGCAAAGUGGCUGUGGCUAGACUGCC [U20A G21C]	0.39
GGCAGAGCUCAACACAGCUUGGCAAAGUGGCUGUGGCUACACUGCC [G19U G40C]	0.05
GGCAGAGCUCAACACAGCUUGGCAAAGUGGCUGUGGCUAUACUGCC [G19U G40U]	0.1

Variant	self-cleavage
GGCAGAGCUCAACACAGCUUGGCAAAGUGGCUGUGGCUAAACUGCC [G19U G40A]	0.08
GGCAGAGCUCAACACAGCUUGGCAAAGUGGCCGUGGCUAGACUGCC [G19U U32C]	0.4
GGCAGAGCUCAACACAGCUUGGCAAAGUGGCGGUGGCUAGACUGCC [G19U U32G]	0.1
GGCAGAGCUCAACACAGCUUGGCAAAGUGGCAGUGGCUAGACUGCC [G19U U32A]	0.09
GGCAGAGCUCAACACAGCUUGGCAAAGUGGCUGUGACUAGACUGCC [G19U G36A]	0.1
GGCAGAGCUCAACACAGCUUGGCAAAGUGGCUGUGUCUAGACUGCC [G19U G36U]	0.04
GGCAGAGCUCAACACAGCUUGGCAAAGUGGCUGUGCCUAGACUGCC [G19U G36C]	0.1
GGCAGAGCUCAACACAGCUUGGCAAAGGGGCUGUGGCUAGACUGCC [G19U U28G]	0.73
GGCAGAGCUCAACACAGCUUGGCAAAGAGGCUGUGGCUAGACUGCC [G19U U28A]	0.63
GGCAGAGCUCAACACAGCUUGGCAAAGCGGCUGUGGCUAGACUGCC [G19U U28C]	0.67
GGCAGAGCUCAACACAGCGAGGCAAAGUUGCUGUGGCUAGACUGCC [U20A G29U]	0.45
GGCAGAGCUCAACACAGCGAGGCAAAGUCGCUGUGGCUAGACUGCC [U20A G29C]	0.55
GGCAGAGCUCAACACAGCGAGGCAAAGUAGCUGUGGCUAGACUGCC [U20A G29A]	0.51
GGCAGAGCUCAACACAGCUUGGCAAAGUGGCUGUAGCUAGACUGCC [G19U G35A]	0.12
GGCAGAGCUCAACACAGCUUGGCAAAGUGGCUGUCGCUAGACUGCC [G19U G35C]	0.09
GGCAGAGCUCAACACAGCUUGGCAAAGUGGCUGUUGCUAGACUGCC [G19U G35U]	0.16
GGCAGAGCUCAACACAGCGAGGCAAAGUGGUUGUGGCUAGACUGCC [U20A C31U]	0.17
GGCAGAGCUCAACACAGCGAGGCAAAGUGGAUGUGGCUAGACUGCC [U20A C31A]	0.09
GGCAGAGCUCAACACAGCGAGGCAAAGUGGGUGUGGCUAGACUGCC [U20A C31G]	0.08

Variant	self-cleavage
GGCAGAGCUCAACACAGCGAGGCACAGUGGCUGUGGCUAGACUGCC [U20A A25C]	0.61
GGCAGAGCUCAACACAGCGAGGCAUAGUGGCUGUGGCUAGACUGCC [U20A A25U]	0.77
GGCAGAGCUCAACACAGCGAGGCAGAGUGGCUGUGGCUAGACUGCC [U20A A25G]	0.26
GGCAGAGCUCAACACAGCUUGGCAAAGUGGCUGUGGCGAGACUGCC [G19U U38G]	0.02
GGCAGAGCUCAACACAGCUUGGCAAAGUGGCUGUGGCAAGACUGCC [G19U U38A]	0.38
GGCAGAGCUCAACACAGCUUGGCAAAGUGGCUGUGGCCAGACUGCC [G19U U38C]	0.3
GGCAGAGCUCAACACAGCUUGGCAAAGUGGCUGUGGCUAGACUACC [G19U G44A]	0.27
GGCAGAGCUCAACACAGCUUGGCAAAGUGGCUGUGGCUAGACUUCC [G19U G44U]	0.28
GGCAGAGCUCAACACAGCUUGGCAAAGUGGCUGUGGCUAGACUCCC [G19U G44C]	0.31
GGCAGAGCUCAACACAGCGAGGCAAUGUGGCUGUGGCUAGACUGCC [U20A A26U]	0.91
GGCAGAGCUCAACACAGCGAGGCAAGGUGGCUGUGGCUAGACUGCC [U20A A26G]	0.91
GGCAGAGCUCAACACAGCGAGGCAACGUGGCUGUGGCUAGACUGCC [U20A A26C]	0.76
GGCAGAGCUCAACACAGCGAGGUAAAGUGGCUGUGGCUAGACUGCC [U20A C23U]	0.8
GGCAGAGCUCAACACAGCGAGGAAAAGUGGCUGUGGCUAGACUGCC [U20A C23A]	1.15
GGCAGAGCUCAACACAGCGAGGGAAAGUGGCUGUGGCUAGACUGCC [U20A C23G]	0.69
GGCAGAGCUCAACACAGCUUGGCAAAGUGGCUGUGGCUAGAAUGCC [G19U C42A]	0.14
GGCAGAGCUCAACACAGCUUGGCAAAGUGGCUGUGGCUAGAGUGCC [G19U C42G]	0.07
GGCAGAGCUCAACACAGCUUGGCAAAGUGGCUGUGGCUAGAUUGCC [G19U C42U]	0.3
